Measurements from article PMC7754295.

Assays:
Test in all cases: native gel or EMSA
[1] = molecular target: NpHV1‐GFP (Nicoletia phytophila voltage‐gated proton channel 1 with GFP) (Nicoletia phytophila)
[2] = molecular target: NpHV1‐GFP with C‐terminal StrepTagII (Nicoletia phytophila)
[3] = molecular target: NpHV1‐GFP with C‐terminal deca‐His Tag (Nicoletia phytophila)

Substance: NpHV1‐GFP (Nicoletia phytophila voltage‐gated proton channel 1 with GFP) (natural protein)
- stoichiometry N [1]: 2

Substance: NpHV1‐GFP with C‐terminal StrepTagII (natural protein)
- stoichiometry N [2]: 2

Substance: NpHV1‐GFP with C‐terminal deca‐His Tag (natural protein)
- stoichiometry N [3]: 2
